Patent US20240343814A1
Substitutions are numbered along the chain they refer to.

B1: VRDN-02532 (antibody, V domains shown)
VH: EVQLVQSGGGLVKPGGSLRLSCAASGFTFSSFAMHWVRQAPGKGLEWISVIDTRGATYYADSVKGRFTISRDNAKNSLYLQMNSLRAEDTAVYYCARLGNFYYGMDVWGQGTTVTVSS
VL: EIVLTQSPGTLSVSPGERATLSCRASQHIGSSLHWYQQKPGQAPRLLIKYASQSLSGIPDRFSGSGSGTDFTLTISRLEPEDFAVYYCHQSSRLPHTFGQGTKVEIK
B2: VRDN-02534 (antibody, V domains shown)
VH: B1 VH
VL: B1 VL with H28S, G30H
B3: VRDN-02541 (antibody, V domains shown)
VH: B1 VH
VL: B1 VL with H28S, S52H
B4: VRDN-02537 (antibody, V domains shown)
VH: B1 VH
VL: B1 VL with H28S, L33H
B5: VRDN-02533 (antibody, V domains shown)
VH: B1 VH
VL: B1 VL with H28S, I29H
B6: VRDN-02540 (antibody, V domains shown)
VH: B1 VH
VL: B1 VL with H28S, A51H
B7: VRDN-02504 (antibody, V domains shown)
VH: B1 VH with F29H
VL: B1 VL with H28S
B8: VRDN-02539 (antibody, V domains shown)
VH: B1 VH
VL: B1 VL with H28S, Y50H
B9: VRDN-02542 (antibody, V domains shown)
VH: B1 VH
VL: B1 VL with H28S, Q53H
B10: VRDN-02535 (antibody, V domains shown)
VH: B1 VH
VL: B1 VL with H28S, S31H
B11: VRDN-02536 (antibody, V domains shown)
VH: B1 VH
VL: B1 VL with H28S, S32H

Target: Recombinant human his-tagged IGF 1R extracellular domain protein (human) (UniProt P08069)
Test: SPR, captured IgG, IGF-1R ECD-his analyte, dissociation pH 6

Binder	Kd [pM]	koff [s⁻¹]	kon [M⁻¹ s⁻¹]
B1	29.2	1e-06	34300
B2	39.3	1.17e-06	29800
B3	28	1e-06	35700
B4	36	1e-06	27800
B5	49.3	1e-06	20300
B6	66.2	1e-06	15100
B7	24.2	1e-06	41300
B8	21600	0.000584	27000
B9	38.9	1e-06	25700
B10	27.3	1e-06	36600
B11	22.8	1e-06	43900

Target: Recombinant human his-tagged IGF 1R extracellular domain protein (human) (UniProt P08069)
Test: SPR, captured IgG, IGF-1R ECD-his analyte, dissociation pH 7.4

Binder	Kd [pM]	koff [s⁻¹]	kon [M⁻¹ s⁻¹]
B1	316	4.08e-05	129000
B2	5.1	1e-06	196000
B3	6.54	1e-06	153000
B4	802	7.16e-05	89300
B5	519	4.45e-05	85700
B6	434	4.25e-05	97900
B7	5080	0.000186	36600
B8	5.88	1e-06	170000
B9	5.35	1e-06	187000
B10	363	4.07e-05	112000
B11	7.46	1e-06	134000
